Test results as given in patent US8828923B2, “Insulin derivatives” (Novo Nordisk A/S, priority 2003, dated 2014).

How the values were obtained:
[1] = Hydrophobicity (hydrophobic index) k′rel relative to human insulin by isocratic RP-HPLC; format: physicochemical; details: LiChrosorb RP18, isocratic elution, 40° C., pH 7.3 phosphate/acetonitrile
Experimental: The elution was monitored by following the UV absorption of the eluate at 214 nm. Void time, t0, was found by injecting 0.1 mM sodium nitrate.

Sprague Dawley male rats = test: Assay (II) potency relative to human insulin, euglycaemic clamp with i.v. infusion; format: in vivo; details: rat clamp, i.v. infusion for 300 min, 15 and 20 pmol/min/kg
Source text: Sprague Dawley male rats weighing 238-383 g on the experimental day were used for the clamp experiment. The rats had free access to feed under controlled ambient conditions and were fasted overnight (from 3 pm) prior to the clamp experiment.
The rats were acclimatized in the animal facilities for at least 1 week prior to the surgical procedure. Approximately 1 week prior to the clamp experiment Tygon catheters were inserted under halothane anaesthesia into the jugular vein (for infusion) and the carotid artery (for blood sampling) and exteriorised and fixed on the back of the neck. The rats were given Streptocilin vet. (Boehringer Ingelheim; 0.15 ml/rat, i.m.) post-surgically and placed in an animal care unit (25° C.) during the recovery period. In order to obtain analgesia, Anorphin (0.06 mg/rat, s.c.) was administered during anaesthesia and Rimadyl (1.5 mg/kg, s.c.) was administered after full recovery from the anaesthesia (2-3 h) and again once daily for 2 days.
The clamp technique employed was adapted from (1). At 7 am on the experimental day overnight fasted (from 3 pm the previous day) rats were weighed and connected to the sampling syringes and infusion system (Harvard 22 Basic pumps, Harvard, and Perfectum Hypodermic glass syringe, Aldrich) and then placed into individual clamp cages where they rested for ca. 45 min before start of experiment. The rats were able to move freely on their usual bedding during the entire experiment and had free access to drinking water. […] Plasma glucose levels were measured at 10 min intervals throughout and infusion of 20% aqueous glucose was adjusted accordingly in order to maintain euglyceamia. Samples of re-suspended erythrocytes were pooled from each rat and returned in about ½ ml volumes via the carotid catheter.
Rats were killed at the end of experiment using a pentobarbital overdose.
Test compounds and doses: Insulins to be tested were diluted from a stock solution containing 97 μM of the insulin derivative in 5 mM phosphate pH 7.7. The final concentration in the solution ready for use was 0.45 μM of the insulin derivative, 5 mM of phosphate, 100 mM of sodium chloride, 0.007% of polysorbate 20. The pH was 7.7 and the i.v. infusion rate was 15 and 20 pmol-min^−1−kg^−1.
Both stock solutions were stored at −20 C. and thawed overnight at 4° C. before use. The solutions were gently turned upside down several times 15 min before they were transferred to the infusion syringes.

human insulin receptor = human insulin receptor (Homo sapiens, UniProt P06213); test: Assay (I) insulin receptor binding, SPA antibody capture assay; details: recombinant human insulin receptor - exon 11, A14 Tyr[125I]-human insulin tracer
Experimental: SPA-PVT antibody-binding beads, anti-mouse reagent (Amersham Biosciences, Cat No. PRNQ0017) were mixed with 25 ml of binding buffer (100 mM HEPES pH 7.8; 100 mM sodium chloride, 10 mM MgSO4, 0.025% Tween-20). […] A total of 100 μl was then added and a dilution series is made from appropriate samples. To the dilution series was then added 100 μl of reagent mix and the samples were incubated for 16 hours while gently shaken. The phases were the then separated by centrifugation for 1 min and the plates counted in a Topcounter. The binding data were fitted using the nonlinear regression algorithm in the GraphPad Prism 2.01 (GraphPad Software, San Diego, Calif.).
Specific antibodies (F12) were produced by monoclonal technique: RBF mice were immunized by injecting 50 μg of purified mIR in FCA subcutaneously followed by two injections with 20 μg of mIR in FIA. Highresponder mice were boosted intravenously with 25 μg of mIR and the spleens were harvested after 3 days. Spleen cells were fused with the myeloma Fox cell line (Kohler, G & Milstein C. (1976), European J. Immunology, 6:511-19; Taggart RT et al (1983), Science 219:1228-30). Supernatants were screened for antibody production in a mIR specific ELISA. Positive wells were cloned and tested in Western blotting.

human insulin receptor, sequence (P06213 28-746 isoform P06213-2 limits assumed): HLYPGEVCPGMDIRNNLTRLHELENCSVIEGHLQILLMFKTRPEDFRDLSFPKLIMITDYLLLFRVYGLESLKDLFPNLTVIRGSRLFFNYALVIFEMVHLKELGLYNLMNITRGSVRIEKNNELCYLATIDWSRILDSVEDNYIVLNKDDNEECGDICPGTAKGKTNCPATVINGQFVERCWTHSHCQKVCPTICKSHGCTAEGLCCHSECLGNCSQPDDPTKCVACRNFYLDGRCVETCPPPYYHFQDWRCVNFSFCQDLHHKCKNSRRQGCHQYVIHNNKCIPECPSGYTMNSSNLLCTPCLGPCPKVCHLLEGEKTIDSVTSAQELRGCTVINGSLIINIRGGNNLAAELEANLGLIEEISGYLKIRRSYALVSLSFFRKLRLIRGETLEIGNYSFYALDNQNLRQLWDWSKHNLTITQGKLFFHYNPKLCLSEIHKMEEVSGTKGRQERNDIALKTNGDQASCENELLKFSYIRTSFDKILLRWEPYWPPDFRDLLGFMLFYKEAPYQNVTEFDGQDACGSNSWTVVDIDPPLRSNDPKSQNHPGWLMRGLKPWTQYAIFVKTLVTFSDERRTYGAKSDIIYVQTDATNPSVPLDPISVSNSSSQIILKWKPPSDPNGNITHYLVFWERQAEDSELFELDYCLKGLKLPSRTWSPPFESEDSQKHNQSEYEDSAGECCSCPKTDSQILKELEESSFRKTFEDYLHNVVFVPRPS
human insulin receptor, sequence (P06213 763-1382 partner limits assumed): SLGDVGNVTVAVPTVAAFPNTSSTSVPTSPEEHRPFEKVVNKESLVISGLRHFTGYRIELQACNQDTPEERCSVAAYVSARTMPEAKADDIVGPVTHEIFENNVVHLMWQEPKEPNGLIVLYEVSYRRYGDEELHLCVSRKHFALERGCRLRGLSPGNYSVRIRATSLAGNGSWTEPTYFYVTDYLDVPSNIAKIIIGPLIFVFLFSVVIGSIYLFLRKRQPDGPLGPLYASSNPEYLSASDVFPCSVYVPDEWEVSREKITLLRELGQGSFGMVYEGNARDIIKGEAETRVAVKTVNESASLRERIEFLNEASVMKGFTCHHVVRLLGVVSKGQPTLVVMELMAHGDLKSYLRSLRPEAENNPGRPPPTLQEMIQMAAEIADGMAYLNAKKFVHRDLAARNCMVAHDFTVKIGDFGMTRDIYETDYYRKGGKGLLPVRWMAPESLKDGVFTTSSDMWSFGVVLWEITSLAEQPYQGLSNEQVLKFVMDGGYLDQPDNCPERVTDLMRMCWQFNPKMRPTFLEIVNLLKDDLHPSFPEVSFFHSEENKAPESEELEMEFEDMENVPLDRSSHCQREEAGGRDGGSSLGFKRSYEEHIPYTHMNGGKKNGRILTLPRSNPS

Row | Substance | k′rel (hydrophobic index relative to human insulin) [1] | Potency relative to human insulin (Sprague Dawley male rats) [%] | Receptor binding (% of human insulin) (human insulin receptor)
1 | N^εB29—(N^α-(HOOC(CH2)14CO)-γ-Glu) des(B30) Human Insulin | 0.87 | >50 | 26 % of human insulin
2 | N^εB29—(N^α-(HOOC(CH2)16CO)-γ-Glu—N-(γ-Glu)) des(B30) Human Insulin | 1.17 | >50 | 11 % of human insulin
3 | N^εB29—(N—(Gly-OC(CH2)13CO-γ-L-Glu) des(B30) Human Insulin | 0.58 | – | 22 % of human insulin
4 | N^εB29—(N—(Gly-OC(CH2)14CO-γ-L-Glu) des(B30) Human Insulin | 0.88 | >50 | 32 % of human insulin
5 | N^εB29—(N—(Gly-OC(CH2)16CO-γ-L-Glu) des(B30) Human Insulin | 1.57 | – | 9.1 % of human insulin
6 | N^εB29—(N—(HOOC(CH2)14CO-ε-L-LysCO—) des(B30) Human Insulin | 0.90 | – | 5.7 % of human insulin
7 | N^εB29—(N—(L-Asp-OC(CH2)16CO)-γ-L-Glu) des(B30) Human Insulin | 0.70 | – | 13 % of human insulin
8 | N^εB29—(N—(L-Glu-OC(CH2)14CO-γ-L-Glu) des(B30) Human Insulin | 0.33 | – | 13 % of human insulin
9 | N^εB29—(N—(L-Glu-OC(CH2)14CO—) des(B30) Human Insulin | 1.17 | – | 9.4 % of human insulin
10 | N^εB29—(N—(L-Sar-OC(CH2)13CO-γ-L-Glu) des(B30) Human Insulin | 0.63 | – | 20 % of human insulin
11 | N^εB29—(N—HOOC(CH2)8CO-γ-Glu) des(B30) human insulin | 0.45 | – | –
12 | N^εB29—(N—HOOC(CH2)13CO-β-L-Asp) des(B30) Human Insulin | 0.47 | – | 11 % of human insulin
13 | N^εB29—(N—HOOC(CH2)13CO-β-L-Glu) des(B30) Human Insulin | 0.54 | – | 15 % of human insulin
14 | N^εB29—(N—HOOC(CH2)14CO-β-D-Asp) des(B30) Human Insulin | – | – | 37 % of human insulin
15 | N^εB29—(N—HOOC(CH2)14CO-β-L-Asp) des(B30) Human Insulin | 0.69 | >50 | 16 % of human insulin
16 | N^εB29—(N—HOOC(CH2)15CO-β-L-Asp) des(B30) Human Insulin | 1.09 | – | 5.4 % of human insulin
17 | N^εB29—(N—HOOC(CH2)15CO-γ-L-Glu) des(B30) Human Insulin | 1.13 | – | 4 % of human insulin
18 | N^εB29—(N—HOOC(CH2)16CO-α-Glu)-N-(AspAsp) des(B30) human insulin | 1.07 | – | –
19 | N^εB29—(N—HOOC(CH2)16CO-α-L-Asp) des(B30) Human Insulin | 1.49 | – | 13 % of human insulin
20 | N^εB29—(N—HOOC(CH2)16CO-α-L-Asp)—N-(β-L-Asp) des(B30) Human Insulin | – | – | 14 % of human insulin
21 | N^εB29—(N—HOOC(CH2)16CO-α-L-Glu) des(B30) Human Insulin | 1.51 | – | 16 % of human insulin
22 | N^εB29—(N—HOOC(CH2)16CO-α-L-Glu)—N—(β-L-Asp) des(B30) Human Insulin | 1.11 | – | 11 % of human insulin
23 | N^εB29—(N—HOOC(CH2)16CO-β-L-Asp) des(B30) Human Insulin | 1.54 | – | 11 % of human insulin
24 | N^εB29—(N—HOOC(CH2)16CO-γ-D-Glu) des(B30) Human Insulin | 1.4 | – | 13 % of human insulin
25 | N^εB29—(N—HOOC(CH2)16CO-δ-L-Aad) des(B30) Human Insulin | 0.84 | – | 7 % of human insulin
26 | N^εB29—[N^α-(HOOC(CH2)11)NHCO(CH2)3CO)-γ-L-Glu] des(B30) Human Insulin | 0.42 | – | 46 % of human insulin
27 | N^εB29—[N—(HOOC(CH2)16CO)—N-(carboxymethyl)-β-Ala] des(B30) Human Insulin | 1.13 | – | 9.4 % of human insulin
28 | NεB29—(Nα-(HOOC(CH2)16CO)-γ-Glu) des(B30) Human Insulin | 1.15 | >50 | 9.2 % of human insulin
